Reference: the supplement of paper PMC10567573

B1: FAM164C (parent)
chain: YPHCTGISQQDPESDSQGQGNGLF

Variants of: B1
Assay: protein stability index of a GFP-peptide fusion (GPS, HEK-293T) (PSI 1-6); higher = more stable
Settings: c terminus: a fixed tail appended
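Note: lentivirally expressed fusions sorted by FACS into six bins by GFP to DsRed ratio, PSI derived from sequencing read proportions per bin multiplied by bin number.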

Row | Variant | protein stability index
1 | YPHCTGISQEDPESDSQGQGNGLF [Q10E] | 3.87
2 | YPHCTGISQTDPESDSQGQGNGLF [Q10T] | 3.64
3 | YPHCTGISQLDPESDSQGQGNGLF [Q10L] | 2.96
4 | YPHCTGISQWDPESDSQGQGNGLF [Q10W] | 2.87
5 | YPHCTGISQQDPESDSQGQGFGLF [N21F] | 2.62
6 | YPHCTGISQQDPESDSQGQGMGLF [N21M] | 3.35
7 | YPHCTGISQQDPESDSQGQGEGLF [N21E] | 4.86
8 | YPHCTGISQQDPESDSQGQGIGLF [N21I] | 3.25
9 | YPHCTGISQQAPESDSQGQGNGLF [D11A] | 3.66
10 | YPHCTGISFQDPESDSQGQGNGLF [Q9F] | 3.05
11 | YPHCTGISQQDPESDSQGQGNGPF [L23P] | 4.48
12 | YPHCTGISQQDPESDSQGQGNGRF [L23R] | 4.63
13 | YPHCTGISQQDPESDSQGQGNGIF [L23I] | 3.97
14 | YPHCTGISQQDPESDSQGQGNGSF [L23S] | 4.6
15 | YPHCTGISQQDPESDSNGQGNGLF [Q17N] | 4.14
16 | YPHCTGISQQDPESDSLGQGNGLF [Q17L] | 2.96
17 | YPHCTGISQQDPESDSGGQGNGLF [Q17G] | 3.74
18 | YPHCTGISQQDPESDSAGQGNGLF [Q17A] | 3.88
19 | YPHCTGISQQDPESDSEGQGNGLF [Q17E] | 4.4
20 | YPHCTGISQQDPESDSVGQGNGLF [Q17V] | 3.4
21 | YPHCTGISQQDPESDSRGQGNGLF [Q17R] | 3.71
22 | YPHCTIISQQDPESDSQGQGNGLF [G6I] | 3.25
23 | YPHCTQISQQDPESDSQGQGNGLF [G6Q] | 3.58
24 | YPHCTWISQQDPESDSQGQGNGLF [G6W] | 2.87

Row | Variant | protein stability index
25 | YPHCTGISQQDPESDRQGQGNGLF [S16R] | 3.31
26 | YPHCTGISQQDPEWDSQGQGNGLF [S14W] | 3.13
27 | YPHCTGISQQDPEMDSQGQGNGLF [S14M] | 3.4
28 | YPHCTGISQQDPEVDSQGQGNGLF [S14V] | 4.3
29 | YPHCTGISQQDPELDSQGQGNGLF [S14L] | 3.77
30 | YPHCTGISQQDPECDSQGQGNGLF [S14C] | 3.54
31 | YPHCTGISQQDPEHDSQGQGNGLF [S14H] | 3.73
32 | YLHCTGISQQDPESDSQGQGNGLF [P2L] | 3.96
33 | YPQCTGISQQDPESDSQGQGNGLF [H3Q] | 3.29
34 | YPPCTGISQQDPESDSQGQGNGLF [H3P] | 3.32
35 | YPWCTGISQQDPESDSQGQGNGLF [H3W] | 3.22
36 | YPTCTGISQQDPESDSQGQGNGLF [H3T] | 4.12
37 | YPDCTGISQQDPESDSQGQGNGLF [H3D] | 4.48
38 | YPHCTGGSQQDPESDSQGQGNGLF [I7G] | 3.83
39 | MPHCTGISQQDPESDSQGQGNGLF [Y1M] | 5.4
40 | VPHCTGISQQDPESDSQGQGNGLF [Y1V] | 5.07
41 | GPHCTGISQQDPESDSQGQGNGLF [Y1G] | 5.44
42 | PPHCTGISQQDPESDSQGQGNGLF [Y1P] | 5.37
43 | DPHCTGISQQDPESDSQGQGNGLF [Y1D] | 5.46
44 | QPHCTGISQQDPESDSQGQGNGLF [Y1Q] | 5.36
45 | FPHCTGISQQDPESDSQGQGNGLF [Y1F] | 3.49
46 | YPHCTGISQQDGESDSQGQGNGLF [P12G] | 3.45
47 | YPHCTGISQQDYESDSQGQGNGLF [P12Y] | 3.54
48 | YPHCTGISQQDMESDSQGQGNGLF [P12M] | 3.6

Row | Variant | protein stability index
49 | YPHCTGISQQDTESDSQGQGNGLF [P12T] | 3.74
50 | YPHCTGISQQDFESDSQGQGNGLF [P12F] | 3.56
51 | YPHCTGISQQDHESDSQGQGNGLF [P12H] | 3.73
52 | YPHTTGISQQDPESDSQGQGNGLF [C4T] | 4.32
53 | YPHHTGISQQDPESDSQGQGNGLF [C4H] | 4.24
54 | YPHATGISQQDPESDSQGQGNGLF [C4A] | 3.92
55 | YPHVTGISQQDPESDSQGQGNGLF [C4V] | 4.07
56 | YPHSTGISQQDPESDSQGQGNGLF [C4S] | 4.16
57 | YPHCTGISQQDPESDSQGTGNGLF [Q19T] | 3.81
58 | YPHCTGISQQDPESDSQGSGNGLF [Q19S] | 3.9
59 | YPHCTGISQQDPESDSQGYGNGLF [Q19Y] | 3.36
60 | YPHCTGISQQDPCSDSQGQGNGLF [E13C] | 3.34
61 | YPHCTGISQQDPTSDSQGQGNGLF [E13T] | 3.15
62 | YPHCTGISQQDPGSDSQGQGNGLF [E13G] | 3.38
63 | YPHCTGISQQDPQSDSQGQGNGLF [E13Q] | 3.31
64 | YPHCTGISQQDPSSDSQGQGNGLF [E13S] | 3.08
65 | YPHCTGISQQDPLSDSQGQGNGLF [E13L] | 2.81
66 | YPHCTGISQQDPPSDSQGQGNGLF [E13P] | 3.51
67 | YPHCTGINQQDPESDSQGQGNGLF [S8N] | 3.39
68 | YPHCTGIFQQDPESDSQGQGNGLF [S8F] | 2.69
69 | YPHCTGISQQDPESDSQGQWNGLF [G20W] | 2.35
70 | YPHCTGISQQDPESDSQGQTNGLF [G20T] | 3.33
71 | YPHCTGISQQDPESDSQGQINGLF [G20I] | 3.02
72 | YPHCTGISQQDPESDSQGQHNGLF [G20H] | 3.08

Row | Variant | protein stability index
73 | YPHCTGISQQDPESDSQGQRNGLF [G20R] | 3.65
74 | YPHCTGISQQDPESFSQGQGNGLF [D15F] | 2.94
75 | YPHCTGISQQDPESDSQGQGNRLF [G22R] | 3.78
76 | YPHCTGISQQDPESDSQGQGNNLF [G22N] | 2.91
77 | YPHCTGISQQDPESDSQGQGNFLF [G22F] | 2.94
78 | YPHCTGISQQDPESDSQGQGNPLF [G22P] | 3.95
79 | YPHCTGISQQDPESDSQGQGNALF [G22A] | 3.78
80 | YPHCTGISQQDPESDSQGQGNMLF [G22M] | 2.96
81 | YPHCTGISQQDPESDSQGQGNGLV [F24V] | 4.41
82 | YPHCTGISQQDPESDSQGQGNGLR [F24R] | 5.01
83 | YPHCTGISQQDPESDSQGQGNGLA [F24A] | 3.89
84 | YPHCTGISQQDPESDSQGQGNGLH [F24H] | 4.81
85 | YPHCTGISQQDPESDSQVQGNGLF [G18V] | 3.32
86 | YPHCTGISQQDPESDSQPQGNGLF [G18P] | 3.83
87 | YPHCTGISQQDPESDSQNQGNGLF [G18N] | 3.58
88 | YPHCTGISQQDPESDSQRQGNGLF [G18R] | 3.83
89 | YPHCTGISQQDPESDSQDQGNGLF [G18D] | 3.67
90 | YPHCTGISQQDPESDSQCQGNGLF [G18C] | 3.9
91 | YPHCTGISQQDPESDSQSQGNGLF [G18S] | 3.77
92 | YPHCTGISQQDPESDSQHQGNGLF [G18H] | 3.74
93 | YPHCTGISQQDPESDSQQQGNGLF [G18Q] | 3.72
94 | YPHCTGISQQDPESDSQIQGNGLF [G18I] | 3.32
